The values below come from PMC2583361.

This test concerns the target SSB C-terminal peptide (SSB-Ct peptide) (E. coli). In words: ITC.

Sequence of PriA DNA helicase (P17888 whole entry): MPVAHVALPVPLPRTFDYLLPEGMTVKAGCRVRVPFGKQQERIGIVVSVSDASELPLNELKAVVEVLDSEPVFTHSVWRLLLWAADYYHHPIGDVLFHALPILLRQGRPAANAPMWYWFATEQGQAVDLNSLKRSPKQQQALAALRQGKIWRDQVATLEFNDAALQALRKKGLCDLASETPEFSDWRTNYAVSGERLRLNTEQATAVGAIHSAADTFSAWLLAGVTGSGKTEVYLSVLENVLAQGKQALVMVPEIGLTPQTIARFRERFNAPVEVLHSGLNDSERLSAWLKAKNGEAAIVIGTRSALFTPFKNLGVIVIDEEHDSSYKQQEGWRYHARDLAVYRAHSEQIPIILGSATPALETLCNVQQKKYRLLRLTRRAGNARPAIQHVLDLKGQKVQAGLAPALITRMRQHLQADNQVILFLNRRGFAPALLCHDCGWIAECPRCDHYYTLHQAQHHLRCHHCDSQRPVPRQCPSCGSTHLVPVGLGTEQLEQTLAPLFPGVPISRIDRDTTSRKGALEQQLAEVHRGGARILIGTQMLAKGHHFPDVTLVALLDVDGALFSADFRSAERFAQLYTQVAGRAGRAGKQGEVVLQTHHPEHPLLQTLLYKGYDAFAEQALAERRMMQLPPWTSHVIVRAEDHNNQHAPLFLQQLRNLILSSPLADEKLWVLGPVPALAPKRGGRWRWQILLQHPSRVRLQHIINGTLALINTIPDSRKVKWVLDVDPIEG
Sequence of χ subunit of the DNA polymerase III holoenzyme (P28905 whole entry): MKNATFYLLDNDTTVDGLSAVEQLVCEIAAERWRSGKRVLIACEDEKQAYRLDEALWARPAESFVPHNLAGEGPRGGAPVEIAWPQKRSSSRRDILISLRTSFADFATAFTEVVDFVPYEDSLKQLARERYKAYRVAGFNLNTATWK

Consider “χ subunit of the DNA polymerase III holoenzyme (from UniProt P28905 1-147) (natural protein)”, for which the dH is -8.6 kcal/mol.
Regarding “PriA DNA helicase (from UniProt P17888 1-732) (enzyme)”, the Ka was found to be 1.8e+06 M⁻¹ and the dH is -6.9 kcal/mol.
